USRE38424E1 (The United States of America as represented by the …, priority 1994, dated 2004)
Read-outs that look alike come from different tables or passages of the source.

Conditions: for Duration of Neutropenia in Neutropenic Cycles, Median / Duration of Neutropenia in Neutropenic Cycles, Range / Nadirs in Neutropenic Cycles, Median / Nadirs in Neutropenic Cycles, Range / Duration of Neutropenia in Neutropenic Cycles, Mean / Nadirs in Neutropenic Cycles, Mean / Day of Onset of Neutropenia in Neutropenic Cycles, Median / Day of Onset of Neutropenia in Neutropenic Cycles, Range / Day of Onset of Neutropenia in Neutropenic Cycles, Mean / Nadir (all cycles), Median / Nadir (all cycles), Range / Nadir (all cycles), Mean: taxol 250 mg/m^2/21 days
From the text: A total of 47 patients were included in this study. All patients had recurrent advanced stage epithelial ovarian cancer confirmed on histologic review at the Laboratory of Pathology, National Cancer Institute (NCI). Borderline, mixed, and germ cell histologies were excluded.
Pretreatment evaluation consisted of a physical examination, laboratory studies with CA-125, radiographic evaluation by CT scan, baseline electromyogram with nerve conduction velocity studies (EMG/NCV), creatinine clearance, chest radiograph, and EKG. On-study staging was completed within two weeks of starting therapy. Physical examination and laboratory evaluations were repeated with every cycle, except for CBC which was evaluated twice weekly. Patients underwent restaging every two cycles (i.e., every 6 weeks), which included the repetition of any radiographic studies that were abnormal upon entry. EMG/NCV studies were repeated as indicated to determine the presence of any progressive neurologic toxicity.
The G-CSF was supplied to the Division of Cancer Treatment by Amgen, Inc. (Thousand Oaks, Calif.). This G-CSF administration continued until the absolute granulocyte count of the patient was greater than 1500/μl for two consecutive days after the nadir (i.e., the total count for the two days was at least 3000/μl ) or until the total white blood cell count was greater than 30,000/μl. Patients with responding disease or stable disease continued on the study and were reevaluated at two cycle intervals.
Patients manifesting second or third degree heart block had remaining cycles given in the intensive care unit with appropriate interventions. Antiemetics were given as needed.
More specifically, this was undertaken by increasing the dose of G-CSF administered on the next treatment cycle.
The particulars pertaining to the flexible G-CSF dosage regimen are as follows. […] The dose of G-CSF was reduced by 5 μg/kg/day if severe bone pain occurred at these higher G-CSF dosage levels, i.e., at levels greater than or equal to 10 μg/kg/day.

B1: G-CSF: granulocyte colony-stimulating factor, available from Amgen, Inc. (protein, UniProt P09919 31-207, looked up)
Granulocyte …: TPLGPASSLPQSFLLKCLEQVRKIQGDGAALQEKLVSECATYKLCHPEELVLLGHSLGIPWAPLSSCPSQALQLAGCLSQLHSGLFLYQGLLQALEGISPELGPTLDTLQLDVADFATTIWQQMEELGMAPALQPTQGAMPAFASAFQRRAGGVLVASHLQSFLEVSYRVLRHLAQP
10 μg/kg G-CSF, 49 cycles
  Duration of Neutropenia in Neutropenic Cycles, Median: 1 days
  Duration of Neutropenia in Neutropenic Cycles, Range: 1 to 4 days
  Nadirs in Neutropenic Cycles, Median: 162
  Nadirs in Neutropenic Cycles, Range: 0-494
10 μg/kg G-CSF, 49 cycles, ± 0.7 on wrapped line
  Duration of Neutropenia in Neutropenic Cycles, Mean: 1 days
10 μg/kg G-CSF, 49 cycles, ± 158 on wrapped line
  Nadirs in Neutropenic Cycles, Mean: 178
10 μg/kg G-CSF, 54 cycles
  Day of Onset of Neutropenia in Neutropenic Cycles, Median: 7 days
  Day of Onset of Neutropenia in Neutropenic Cycles, Range: 5 to 9 days
10 μg/kg G-CSF, 54 cycles, ± 0.8 on wrapped line
  Day of Onset of Neutropenia in Neutropenic Cycles, Mean: 7 days
10 μg/kg G-CSF, 130 cycles
  Nadir (all cycles), Median: 865
  Nadir (all cycles), Range: 0-6232
10 μg/kg G-CSF, 130 cycles, ± 1636 on wrapped line
  Nadir (all cycles), Mean: 1341
20 μg/kg G-CSF, 20 cycles
  Day of Onset of Neutropenia in Neutropenic Cycles, Median: 7 days
  Day of Onset of Neutropenia in Neutropenic Cycles, Range: 6 to 11 days
  Duration of Neutropenia in Neutropenic Cycles, Median: 1 days
  Duration of Neutropenia in Neutropenic Cycles, Range: 1 to 5 days
  Nadirs in Neutropenic Cycles, Median: 191
  Nadirs in Neutropenic Cycles, Range: 0-493
20 μg/kg G-CSF, 20 cycles, ± 0.9 on wrapped line
  Duration of Neutropenia in Neutropenic Cycles, Mean: 1 days
20 μg/kg G-CSF, 20 cycles, ± 1.1 on wrapped line
  Day of Onset of Neutropenia in Neutropenic Cycles, Mean: 7 days
20 μg/kg G-CSF, 20 cycles, ± 155 on wrapped line
  Nadirs in Neutropenic Cycles, Mean: 200
20 μg/kg G-CSF, 42 cycles
  Nadir (all cycles), Median: 626
  Nadir (all cycles), Range: 0-6536
20 μg/kg G-CSF, 42 cycles, ± 1430 on wrapped line
  Nadir (all cycles), Mean: 1204
In vivo
  Patients in whom the G-CSF dose is poorly tolerated: about 5%
Phase II
  Patients whose G-CSF doses were modified for bone pain: two
Phase II, 47 patients
  Bone Pain, G-CSF DR (dose reduction): 3 (6) No. (%)
